In JP2004097211A (dated 2004):

T1: CDR1抗原ペプチド
T1 peptide: RSSKSLLYSNGNTYLY

B1: i41SL1−2抗体の重鎖 (other)
VH: QVQLQHSGAELVRPGSSVKVSCKALGYTSTDYEIHWVKQTPVRGLEWIGAIHPGSDVIVYNQKFKGTATLTADKSSSTAYMELRSLTSEDSAVYYCTREGGSVDYVWGQGTLVTVSA
modifications: cysteines reduced with b-mercaptoethanol and alkylated with iodoacetamide (positions not stated)
B2: HpU−20抗体のL鎖 (protein)
VL: DVLMTQTPLSLPISLGDQASISCRSSQSIVQSNGNTYLEWYVQKPGQSPKLLIYKVSNRFSGVPDRFSGSGSGTDFTFKISRVEAEDLGVYYCIQGSHVPLTFGAGTKLELKRA
modifications: cysteines reduced with b-mercaptoethanol and alkylated with iodoacetamide (positions not stated)
B3: i41SL1−2抗体の軽鎖 (other)
VL: DIVMTQTQLTLTINIGQPASISCKSSQSLLDSDGKTYLNWLFQRPGQSPKRLIYLVSKLDSGVPDRFTGSGSGTDFTLKISRVEAEDLGVYYCWQGTHFPLTFGAGTKLELRRA
modifications: cysteines reduced with b-mercaptoethanol and alkylated with iodoacetamide (positions not stated)

How the values were obtained:
CDR1抗原ペプチド = target: T1, CDR1抗原ペプチド; assay: cell-based or functional assay
[1] = target: ヘリコバクターピロリ菌のウレーアゼ (ヘリコバクターピロリ菌 (Helicobacter pylori)) (UniProt P14916); assay: cell-based or functional assay

| Binder | 回転数(kcat) (CDR1抗原ペプチド) | 触媒効率(kcat/Km) (CDR1抗原ペプチド) | タンパク質分解実験 (SDS-PAGE, 1 h): decrease of the β subunit band against the control [1] [%] |
| --- | --- | --- | --- |
| B1 | ~0.005 fold of trypsin (trypsin measured on another synthetic peptide) | ~0.1 fold of trypsin (trypsin measured on another synthetic peptide) | – |
| B2 | – | – | 26.7 |
| B3 | ~0.005 fold of trypsin (trypsin measured on another synthetic peptide) | – | – |
